Test system: Escherichia coli TOP10
Experiment: shrunken log2 fold change of peptide-encoding DNA abundance (4.5 h post-induction vs induction); higher = less antimicrobial activity (less host growth inhibition)
Settings: time post-induction: 4.5 h; library: site-saturation at positions 5, 18, 19, 20
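Note: peptides expressed intracellularly from a pBAD plasmid library in pooled LB shake-flask culture, induced with 0.3% L-arabinose, DNA abundance read by NGS, three biological replicates, DESeq2 with apeglm shrinkage.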

| Sequence | shrunken log2 fold change |
| --- | --- |
| RRIRLRPPRLPRPRPRPRRRPRP | 0.395 |
| RRIRRRPPRLPRPRPRPTGWPRP | 0.766 |
| RRIRVRPPRLPRPRPRPKWQPRP | -0.0246 |
| RRIRHRPPRLPRPRPRPECGPRP | 0.322 |
| RRIRIRPPRLPRPRPRPIDAPRP | -0.215 |
| RRIRWRPPRLPRPRPRPCNYPRP | -0.2 |
| RRIRTRPPRLPRPRPRPKGNPRP | -0.403 |
| RRIRRRPPRLPRPRPRPMYPPRP | -0.197 |
| RRIRWRPPRLPRPRPRPYWHPRP | -0.377 |
| RRIRMRPPRLPRPRPRPRMTPRP | 1.84 |
| RRIRHRPPRLPRPRPRPSSMPRP | -0.474 |
| RRIRKRPPRLPRPRPRPRLDPRP | 0.624 |
| RRIRERPPRLPRPRPRPRLQPRP | 0.0143 |
| RRIRCRPPRLPRPRPRPHKDPRP | -0.636 |
| RRIRHRPPRLPRPRPRPMTQPRP | -0.24 |
| RRIRIRPPRLPRPRPRPITNPRP | -0.176 |
| RRIRARPPRLPRPRPRPWFDPRP | -0.178 |
| RRIRMRPPRLPRPRPRPQCCPRP | 0.00357 |
| RRIRHRPPRLPRPRPRPQEIPRP | -0.19 |
| RRIRRRPPRLPRPRPRPNEEPRP | 0.0468 |
| RRIRLRPPRLPRPRPRPRVFPRP | -0.0171 |
| RRIRQRPPRLPRPRPRPRIIPRP | 0.00299 |
| RRIRHRPPRLPRPRPRPLNYPRP | -0.289 |
| RRIRCRPPRLPRPRPRPNIWPRP | -0.178 |
| RRIRVRPPRLPRPRPRPVKAPRP | 0.0603 |

| Sequence | shrunken log2 fold change |
| --- | --- |
| RRIRQRPPRLPRPRPRPLTGPRP | -0.0104 |
| RRIRCRPPRLPRPRPRPDWCPRP | 0.27 |
| RRIRWRPPRLPRPRPRPDGPPRP | 0.199 |
| RRIRARPPRLPRPRPRPNMNPRP | -0.212 |
| RRIRLRPPRLPRPRPRPPTMPRP | 0.266 |
| RRIRVRPPRLPRPRPRPYRAPRP | -0.201 |
| RRIRDRPPRLPRPRPRPRGNPRP | 0.088 |
| RRIRSRPPRLPRPRPRPHFKPRP | -0.383 |
| RRIRDRPPRLPRPRPRPVFPPRP | 0.108 |
| RRIRDRPPRLPRPRPRPVPCPRP | 0.0758 |
| RRIRGRPPRLPRPRPRPEIDPRP | 1.63 |
| RRIRSRPPRLPRPRPRPIIIPRP | -0.159 |
| RRIRFRPPRLPRPRPRPVYFPRP | -0.399 |
| RRIRCRPPRLPRPRPRPSTAPRP | 0.0354 |
| RRIRNRPPRLPRPRPRPEEIPRP | -0.000921 |
| RRIRKRPPRLPRPRPRPRWAPRP | 0.469 |
| RRIRVRPPRLPRPRPRPDCEPRP | -0.0964 |
| RRIRYRPPRLPRPRPRPVCAPRP | -0.232 |
| RRIRFRPPRLPRPRPRPDADPRP | 0.386 |
| RRIRRRPPRLPRPRPRPINCPRP | -0.129 |
| RRIRTRPPRLPRPRPRPQPGPRP | 0.165 |
| RRIRDRPPRLPRPRPRPVTCPRP | -0.00663 |
| RRIRNRPPRLPRPRPRPRLGPRP | 0.187 |
| RRIRLRPPRLPRPRPRPCGHPRP | -0.0228 |
| RRIRTRPPRLPRPRPRPDMEPRP | -0.132 |

| Sequence | shrunken log2 fold change |
| --- | --- |
| RRIRARPPRLPRPRPRPRQIPRP | 0.313 |
| RRIRFRPPRLPRPRPRPSEKPRP | 0.0358 |
| RRIRARPPRLPRPRPRPEWNPRP | 0.76 |
| RRIRLRPPRLPRPRPRPAPVPRP | 0.23 |
| RRIRHRPPRLPRPRPRPPKHPRP | 0.2 |
| RRIRLRPPRLPRPRPRPERQPRP | 0.0746 |
| RRIRFRPPRLPRPRPRPGQKPRP | -0.0331 |
| RRIRPRPPRLPRPRPRPWKLPRP | -0.0861 |
| RRIRWRPPRLPRPRPRPIDSPRP | -0.0713 |
| RRIRYRPPRLPRPRPRPMGFPRP | -0.179 |
| RRIRVRPPRLPRPRPRPIVRPRP | -0.0635 |
| RRIRGRPPRLPRPRPRPWGSPRP | 0.268 |
| RRIRVRPPRLPRPRPRPSGAPRP | 0.197 |
| RRIRCRPPRLPRPRPRPDHKPRP | -1.04 |
| RRIRDRPPRLPRPRPRPLRLPRP | 0.0919 |
| RRIRERPPRLPRPRPRPVRPPRP | 0.849 |
| RRIRGRPPRLPRPRPRPHYFPRP | 0.313 |
| RRIRMRPPRLPRPRPRPQYYPRP | -0.805 |
| RRIRARPPRLPRPRPRPRRAPRP | 0.831 |
| RRIRSRPPRLPRPRPRPMFKPRP | -0.407 |
| RRIRFRPPRLPRPRPRPNVSPRP | -0.0196 |
| RRIRCRPPRLPRPRPRPHCKPRP | -0.348 |
| RRIRWRPPRLPRPRPRPEFNPRP | 0.609 |
| RRIRPRPPRLPRPRPRPDAVPRP | 0.325 |
| RRIRRRPPRLPRPRPRPMAGPRP | 0.111 |

| Sequence | shrunken log2 fold change |
| --- | --- |
| RRIRKRPPRLPRPRPRPPDCPRP | 1.03 |
| RRIRPRPPRLPRPRPRPTFIPRP | -0.243 |
| RRIRHRPPRLPRPRPRPIYNPRP | -0.898 |
| RRIRGRPPRLPRPRPRPWGGPRP | 0.808 |
| RRIRRRPPRLPRPRPRPEMGPRP | 0.626 |
| RRIRLRPPRLPRPRPRPNIRPRP | -0.585 |
| RRIRERPPRLPRPRPRPLAKPRP | 0.0848 |
| RRIRKRPPRLPRPRPRPDMLPRP | -0.0389 |
| RRIRIRPPRLPRPRPRPEIGPRP | -0.0838 |
| RRIRGRPPRLPRPRPRPNMLPRP | 0.374 |
| RRIRRRPPRLPRPRPRPDHLPRP | -0.0237 |
| RRIRKRPPRLPRPRPRPSWYPRP | -0.519 |
| RRIRHRPPRLPRPRPRPVSQPRP | 0.114 |
| RRIRKRPPRLPRPRPRPMNCPRP | -0.014 |
| RRIRHRPPRLPRPRPRPVCFPRP | -0.0341 |
| RRIRGRPPRLPRPRPRPTLPPRP | 0.574 |
| RRIRQRPPRLPRPRPRPKACPRP | 0.0193 |
| RRIRERPPRLPRPRPRPIDEPRP | 0.0844 |
| RRIRGRPPRLPRPRPRPEWHPRP | 0.386 |
| RRIRHRPPRLPRPRPRPKHHPRP | -0.493 |
| RRIRGRPPRLPRPRPRPCSMPRP | -0.0323 |
| RRIRMRPPRLPRPRPRPTPHPRP | 1.13 |
| RRIRLRPPRLPRPRPRPFYYPRP | -0.666 |
| RRIRWRPPRLPRPRPRPENWPRP | 0.254 |
| RRIRLRPPRLPRPRPRPLEVPRP | -0.0281 |

| Sequence | shrunken log2 fold change |
| --- | --- |
| RRIRTRPPRLPRPRPRPDAVPRP | 0.171 |
| RRIRPRPPRLPRPRPRPVDRPRP | 0.115 |
| RRIRPRPPRLPRPRPRPTIFPRP | 0.0842 |
| RRIRERPPRLPRPRPRPKDMPRP | 0.00303 |
| RRIRVRPPRLPRPRPRPWDIPRP | -0.235 |
| RRIRTRPPRLPRPRPRPLYMPRP | -0.859 |
| RRIRFRPPRLPRPRPRPAPEPRP | 0.81 |
| RRIRKRPPRLPRPRPRPYQNPRP | -0.198 |
| RRIRPRPPRLPRPRPRPYNCPRP | -1.4 |
| RRIRPRPPRLPRPRPRPYEEPRP | -0.214 |
| RRIRCRPPRLPRPRPRPIYPPRP | -0.386 |
| RRIRHRPPRLPRPRPRPGAYPRP | -0.266 |
| RRIRLRPPRLPRPRPRPIAVPRP | -0.16 |
| RRIRARPPRLPRPRPRPKHPPRP | 0.199 |
| RRIRCRPPRLPRPRPRPQQDPRP | -0.046 |
| RRIRRRPPRLPRPRPRPIFAPRP | 0.355 |
| RRIRHRPPRLPRPRPRPSSLPRP | -0.153 |
| RRIRARPPRLPRPRPRPRHYPRP | -0.158 |
| RRIRDRPPRLPRPRPRPSRGPRP | 0.386 |
| RRIRRRPPRLPRPRPRPVHMPRP | 2.19 |
| RRIRFRPPRLPRPRPRPHRPPRP | -0.157 |
| RRIRFRPPRLPRPRPRPALQPRP | -0.142 |
| RRIRARPPRLPRPRPRPFMMPRP | -0.105 |
| RRIRMRPPRLPRPRPRPLYDPRP | -0.0878 |
| RRIRLRPPRLPRPRPRPAPRPRP | 0.816 |

| Sequence | shrunken log2 fold change |
| --- | --- |
| RRIRLRPPRLPRPRPRPFPSPRP | -0.173 |
| RRIRWRPPRLPRPRPRPLGYPRP | -0.24 |
| RRIRCRPPRLPRPRPRPESAPRP | 0.703 |
| RRIRLRPPRLPRPRPRPTMEPRP | 0.274 |
| RRIRARPPRLPRPRPRPHHLPRP | -0.313 |
| RRIRHRPPRLPRPRPRPALYPRP | -0.033 |
| RRIRARPPRLPRPRPRPPPHPRP | 1.03 |
| RRIRKRPPRLPRPRPRPTHYPRP | -0.134 |
| RRIRDRPPRLPRPRPRPKRWPRP | 0.0314 |
| RRIRKRPPRLPRPRPRPDPTPRP | 0.273 |
| RRIRKRPPRLPRPRPRPNKHPRP | -0.122 |
| RRIRGRPPRLPRPRPRPHYSPRP | -0.661 |
| RRIRTRPPRLPRPRPRPSMYPRP | -0.39 |
| RRIRQRPPRLPRPRPRPYVDPRP | -0.431 |
| RRIRNRPPRLPRPRPRPFWLPRP | -0.189 |
| RRIRVRPPRLPRPRPRPFGKPRP | -0.151 |
| RRIRIRPPRLPRPRPRPWDGPRP | -0.094 |
| RRIRERPPRLPRPRPRPTAVPRP | -0.113 |
| RRIRSRPPRLPRPRPRPEKMPRP | 0.061 |
| RRIRIRPPRLPRPRPRPKHWPRP | 0.357 |
| RRIRPRPPRLPRPRPRPEYFPRP | -0.185 |
| RRIRIRPPRLPRPRPRPYTTPRP | -0.0313 |
| RRIRCRPPRLPRPRPRPARMPRP | 0.264 |
| RRIRSRPPRLPRPRPRPMPHPRP | 0.00101 |
| RRIRMRPPRLPRPRPRPIHEPRP | -0.301 |

Reference: the supplement of paper PMC9112550, “Optimization of the antimicrobial peptide Bac7 by deep mutational scanning” (BMC Biology, 2022)
